Data on seven molecules can be found in patent US20210107982A1 (NANJING LEADS BIOLABS, published 2021).

Test [1] has as its target T1, Human 4-1BB recombinant protein (Sinobiological, Cat #10041-H08H) (human, UniProt Q07011 24-186).
T1 construct: Bought recombinant protein
The experiment in a line: ELISA on plate-coated human 4-1BB (25 ng/well), HRP anti-human IgG F(ab')2 detection, OD450; EC50 table under the curve, unit taken from the axis 'Antibody Conc [nM]'. (In an ELISA, binding on a coated surface is turned into a signal by an enzyme label.)

For test [2], the target named is T2, Human 4-1BB expressed on HEK293-NFκB-Luc-human 4-1BB cells (human, UniProt Q07011 24-255). The experiment in a line: cell-based or functional assay.
T2 sequence (Q07011 24-255 limits assumed): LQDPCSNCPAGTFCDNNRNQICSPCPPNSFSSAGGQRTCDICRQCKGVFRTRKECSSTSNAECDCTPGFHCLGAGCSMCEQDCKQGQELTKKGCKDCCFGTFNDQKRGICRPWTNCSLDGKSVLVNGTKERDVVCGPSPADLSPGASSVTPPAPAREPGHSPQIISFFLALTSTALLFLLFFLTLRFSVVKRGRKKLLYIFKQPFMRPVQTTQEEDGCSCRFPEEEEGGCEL
The target of test [3] is T3, Human GITR (Sinobiological, Cat #13643-H08H) (human, UniProt Q9Y5U5 26-161).
T3 sequence (looked up): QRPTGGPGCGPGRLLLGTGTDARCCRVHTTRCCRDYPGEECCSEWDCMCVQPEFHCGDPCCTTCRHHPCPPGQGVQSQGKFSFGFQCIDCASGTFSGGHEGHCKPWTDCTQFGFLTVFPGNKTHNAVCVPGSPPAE
The experiment in a line: ELISA, antigen coated at 25 ng/well.

In test [4] the target is T4, Human CD27 (Sinobiological, Cat #10039-H31H) (human, UniProt P26842 20-192).
T4 sequence (looked up): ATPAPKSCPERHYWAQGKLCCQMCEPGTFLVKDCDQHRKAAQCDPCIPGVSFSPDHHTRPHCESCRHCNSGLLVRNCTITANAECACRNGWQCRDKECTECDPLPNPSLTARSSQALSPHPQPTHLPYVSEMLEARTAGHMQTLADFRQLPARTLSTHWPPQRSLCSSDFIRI
The experiment in a line: ELISA, antigen coated at 25 ng/well.

Test [5] concerns the target T5, Human OX40 (Sinobiological, Cat #10481-H08H) (human, UniProt P43489 29-216).
T5 sequence (looked up): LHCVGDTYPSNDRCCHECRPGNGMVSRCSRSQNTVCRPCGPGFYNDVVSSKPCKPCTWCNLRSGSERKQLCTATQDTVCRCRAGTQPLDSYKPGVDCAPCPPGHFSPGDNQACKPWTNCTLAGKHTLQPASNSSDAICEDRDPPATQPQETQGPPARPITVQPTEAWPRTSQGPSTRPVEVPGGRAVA
The experiment in a line: ELISA, antigen coated at 25 ng/well.

In test [6] the target is Human CD40 (Sinobiological, Cat #10774-H08H) (human, UniProt P25942 21-193). The experiment in a line: ELISA, antigen coated at 25 ng/well.
Chain of Human CD40 (Sinobiological, Cat #10774-H08H) (P25942 21-193 limits assumed): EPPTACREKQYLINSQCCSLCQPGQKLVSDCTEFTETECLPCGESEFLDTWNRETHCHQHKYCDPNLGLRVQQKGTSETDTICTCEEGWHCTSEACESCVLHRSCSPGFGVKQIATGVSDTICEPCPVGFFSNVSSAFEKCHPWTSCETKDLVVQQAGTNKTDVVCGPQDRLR
The target in test [7] is T6, Human HVEM (Sinobiological, Cat #10334-H03H) (human, UniProt Q92956 39-202).
T6 sequence (looked up): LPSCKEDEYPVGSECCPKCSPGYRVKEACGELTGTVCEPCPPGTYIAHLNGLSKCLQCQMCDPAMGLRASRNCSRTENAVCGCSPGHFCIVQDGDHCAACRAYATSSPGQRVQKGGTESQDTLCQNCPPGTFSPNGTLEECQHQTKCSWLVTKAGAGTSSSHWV
The experiment in a line: ELISA, antigen coated at 25 ng/well.

For test [8], the target named is T2, Human 4-1BB expressed on …. The experiment in a line: cell-based or functional assay. The source holds these as a separate data set.
Test [9] has as its target T2, Human 4-1BB expressed on …. The experiment in a line: cell-based or functional assay. The source holds these as a separate data set.
Test [10] deals with T2, Human 4-1BB expressed on …. The experiment in a line: cell-based or functional assay. This is another data set of the same source.
Test [11] concerns the target T7, Human 4-1BB, human Fc tag protein (Hu4-1BB-hFc) (human).
T7 construct: also called Hu4-1BB-huFc; human 4-1BB proteins
The experiment in a line: ELISA, Hu4-1BB-hFc coated, antibody 6.65 nM to 0.009 nM.

Test [12] concerns the target T1, Human 4-1BB recombinant protein …. The experiment in a line: BLI (ForteBio Octet RED 96), antibody on AHC sensors, human 4-1BB as analyte, 1:1 model. For orientation: Biolayer interferometry detects binding as a change in optical thickness at a sensor tip.
For test [13], the target named is T2, Human 4-1BB expressed on …. The experiment in a line: cell-based or functional assay. The source holds these as a separate data set.
For test [14], the target named is T1, Human 4-1BB recombinant protein …. The experiment in a line: ELISA on plate-coated human 4-1BB (25 ng/well), HRP anti-human IgG F(ab')2 detection, OD450; EC50 table under the curve, unit taken from the axis 'Antibody Conc [nM]'. The source holds these as a separate data set.
For test [15], the target named is T2, Human 4-1BB expressed on …. The experiment in a line: cell-based or functional assay. The source holds these as a separate data set.
The target of test [16] is T1, Human 4-1BB recombinant protein …. The experiment in a line: ELISA on plate-coated human 4-1BB (25 ng/well), HRP anti-human IgG F(ab')2 detection, OD450-620; EC50 table under the curve, unit taken from the axis 'Antibody Conc [nM]'.
Test [17] addresses T2, Human 4-1BB expressed on …. The experiment in a line: cell-based or functional assay. The source holds these as a separate data set.
Test [18] concerns the target T1, Human 4-1BB recombinant protein …. The experiment in a line: ELISA on plate-coated human 4-1BB (25 ng/well), HRP anti-human IgG F(ab')2 detection, OD450; EC50 table under the curve, unit taken from the axis 'Antibody Conc [nM]'. This is another data set of the same source.

Read-outs that look alike come from different tables or passages of the source.

T7 sequence (chain, as listed by the source limits assumed): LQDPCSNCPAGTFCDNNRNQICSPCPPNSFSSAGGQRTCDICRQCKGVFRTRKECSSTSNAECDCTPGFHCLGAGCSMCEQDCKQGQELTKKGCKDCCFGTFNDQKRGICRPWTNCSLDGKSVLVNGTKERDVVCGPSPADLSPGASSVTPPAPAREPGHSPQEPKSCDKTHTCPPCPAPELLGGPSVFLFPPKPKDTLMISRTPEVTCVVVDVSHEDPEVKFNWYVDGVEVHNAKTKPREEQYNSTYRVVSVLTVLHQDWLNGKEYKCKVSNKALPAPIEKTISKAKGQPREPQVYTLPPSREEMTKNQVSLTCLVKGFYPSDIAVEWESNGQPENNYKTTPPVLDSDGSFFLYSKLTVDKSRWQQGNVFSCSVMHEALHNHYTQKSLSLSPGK

B1: 41BB-27-IgG2 (antibody, V domains shown)
VH: QVQLQESGPGPVKPSETLSLTCAVSGGSISSSHWWSWVRQPPGKGLEWIGEIYHSGRTYYNPSLKSRVTISVDTSRNQFSLKLSSVTAADTAVYYCAREDGGIMDVWGQGTLVTVSS
VL: LSSELTQDPAVSVALGQTVRITCQGDSLRRFYASWYQQKPGQAPVLVIYGKNNRPSGIPDRFSASDSGNTASLTITGAQAEDEADYYCSSRDRSGYRWVFGGGTKVTVLG
notes: Full antibody, IgG2 / lambda
Usually EC50 stands for the concentration that produces a half-maximal response. Regarding B1, the EC50 in test [1] came to 0.05 nM. In addition, the “EC50, NFκB-luciferase reporter (RLUs) in HEK293-NFκB-Luc-4-1BB cells, without crosslink” value (“EC50 … without crosslink” for short) in [2] was found to be 35.9 nM. Also, the binding result in test [3], in test [4], in test [5], in test [6] and in [7] was “no binding (tested: 500 ng/mL)” throughout.

B2: Urelumab (antibody, human IgG4 S228P, kappa, V domains shown)
VH: QVQLQQWGAGLLKPSETLSLTCAVYGGSFSGYYWSWIRQSPEKGLEWIGEINHGGYVTYNPSLESRVTISVDTSKNQFSLKLSSVTAADTAVYYCARDYGPGNYDWYFDLWGRGTLVTVSS
VL: EIVLTQSPATLSLSPGERATLSCRASQSVSSYLAWYQQKPGQAPRLLIYDASNRATGIPARFSGSGSGTDFTLTISSLEPEDFAVYYCQQRSNWPPALTFCGGTKVEIKR
For the molecule B2, the “EC50 … without crosslink” value in test [8] came to 34 nM; in [9], 26.8 nM; in test [10], 32.3 nM.

B3: P4B-2 (bispecific antibody, human IgG1, kappa, L234A L235A)
heavy: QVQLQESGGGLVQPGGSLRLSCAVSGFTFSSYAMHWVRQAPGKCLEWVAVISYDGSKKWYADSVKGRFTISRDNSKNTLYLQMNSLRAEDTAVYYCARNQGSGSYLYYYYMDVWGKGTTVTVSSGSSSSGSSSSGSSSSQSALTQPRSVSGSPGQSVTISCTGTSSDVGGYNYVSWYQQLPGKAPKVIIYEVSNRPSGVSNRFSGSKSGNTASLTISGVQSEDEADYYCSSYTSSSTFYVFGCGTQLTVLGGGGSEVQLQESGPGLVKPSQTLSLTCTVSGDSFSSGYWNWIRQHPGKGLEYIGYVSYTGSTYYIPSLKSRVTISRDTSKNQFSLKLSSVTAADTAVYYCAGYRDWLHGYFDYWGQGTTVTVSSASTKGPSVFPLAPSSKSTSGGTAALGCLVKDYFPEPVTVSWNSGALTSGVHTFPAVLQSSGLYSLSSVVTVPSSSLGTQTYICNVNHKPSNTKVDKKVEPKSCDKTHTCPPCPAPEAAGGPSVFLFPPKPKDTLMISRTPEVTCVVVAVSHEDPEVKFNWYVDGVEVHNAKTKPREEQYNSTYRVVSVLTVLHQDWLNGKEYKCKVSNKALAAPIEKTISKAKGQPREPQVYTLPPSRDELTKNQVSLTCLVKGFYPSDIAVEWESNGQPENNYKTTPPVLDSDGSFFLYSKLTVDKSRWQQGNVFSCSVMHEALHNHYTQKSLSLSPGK
light: DIQMTQSPSSLSASVGDRVTITCKASQNVMDNVAWYQQKPGKAPKRLIYSASYRFSGVPSRFSGSGSGTEFTLTISSLQPEDFATYYCQQYNGYPLTFGQGTKLEIKRTVAAPSVFIFPPSDEQLKSGTASVVCLLNNFYPREAKVQWKVDNALQSGNSQESVTEQDSKDSTYSLSSTLTLSKADYEKHKVYACEVTHQGLSSPVTKSFNRGEC
notes: PD-L1 x 4-1BB bispecific; the 4-1BB scFv stands at the N-terminus of each heavy chain of the PD-L1 antibody
B3: the EC50 in test [11] stood at 0.113 nM.

B4: P4B-3 (bispecific antibody, human IgG1, kappa, L234A L235A)
heavy: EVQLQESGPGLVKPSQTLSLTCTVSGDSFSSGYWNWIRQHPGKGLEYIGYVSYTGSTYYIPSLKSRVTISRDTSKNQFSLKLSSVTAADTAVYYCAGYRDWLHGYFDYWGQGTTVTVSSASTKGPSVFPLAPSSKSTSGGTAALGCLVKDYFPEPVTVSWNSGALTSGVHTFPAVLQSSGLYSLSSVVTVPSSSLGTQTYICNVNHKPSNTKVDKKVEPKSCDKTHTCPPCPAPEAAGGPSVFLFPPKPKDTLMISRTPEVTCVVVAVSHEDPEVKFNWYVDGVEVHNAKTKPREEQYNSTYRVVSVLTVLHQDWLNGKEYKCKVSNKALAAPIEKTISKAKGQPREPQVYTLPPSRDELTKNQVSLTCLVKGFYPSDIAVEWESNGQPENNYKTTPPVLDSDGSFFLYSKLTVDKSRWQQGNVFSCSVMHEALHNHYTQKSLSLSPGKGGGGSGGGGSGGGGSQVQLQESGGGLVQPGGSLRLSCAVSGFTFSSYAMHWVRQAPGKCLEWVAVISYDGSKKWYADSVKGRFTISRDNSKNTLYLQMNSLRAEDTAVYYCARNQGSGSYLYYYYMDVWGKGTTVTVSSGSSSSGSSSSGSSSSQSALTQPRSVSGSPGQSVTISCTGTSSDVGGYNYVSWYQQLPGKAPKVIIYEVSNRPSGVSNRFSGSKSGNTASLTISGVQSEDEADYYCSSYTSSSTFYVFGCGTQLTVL
light: DIQMTQSPSSLSASVGDRVTITCKASQNVMDNVAWYQQKPGKAPKRLIYSASYRFSGVPSRFSGSGSGTEFTLTISSLQPEDFATYYCQQYNGYPLTFGQGTKLEIKRTVAAPSVFIFPPSDEQLKSGTASVVCLLNNFYPREAKVQWKVDNALQSGNSQESVTEQDSKDSTYSLSSTLTLSKADYEKHKVYACEVTHQGLSSPVTKSFNRGEC
notes: PD-L1 x 4-1BB bispecific; the 4-1BB scFv stands at the C-terminus of each heavy chain of the PD-L1 antibody
As usually defined, the Kd is a measure of binding affinity in units of concentration. A word on the koff: it is a measure of how fast the partners let go of each other. In general, kon refers to the second-order rate constant of association. B4 returned an EC50 in test [11] of 0.0723 nM. Besides, in test [12], the dissociation constant Kd was found to be 146 nM, the off-rate constant (koff) was 0.00409 s⁻¹ and the kon turned out to be 28000 M⁻¹ s⁻¹.

B5: 41BB-13-IgG2 (antibody, V domains shown)
VH: EVQLVETGVEVKKPGASVKVSCKASGYTFTSYYMHWVRQAPGQGLEWMGIINPSGGSTSYAQKFQGRVTMTRDTSTSTAYMELSSLRSEDTAVYYCARDLGEGYDFWSGYYTPSGAFDIWGKGTMVTVSS
VL: QSALTQPASVSGSPGQSITISCTGTSSDVGGYNYVSWYQQRPGKAPKLIIYDVTTRPSGVSNRFSGSKSGTTASLTISGLQAEDEADYYCSSYTSYSTWVFGGGTKLTVLG
notes: Full antibody, IgG2 / lambda
As for B5, the “EC50, NFκB-luciferase reporter (RLUs) in HEK293-NFκB-Luc-4-1BB cells, with crosslink (goat anti-human IgG)” value (shortened to “EC50 … (goat anti-human IgG)”) in [13] worked out at 10.6 nM. Also, the concentration for a half-maximal effect (EC50) in test [14] is 1.27 nM. Further, the “EC50 … without crosslink” value in [10] was found to be 106 nM. Also, the binding result in [3], in test [4], in test [5], in test [6] and in test [7] was “no binding (tested: 500 ng/mL)” throughout.

B6: 41BB-2-IgG2 (antibody, V domains shown)
VH: QVQLQESGGGLVQPGGSLRLSCAVSGFTFSSYAMHWVRQAPGKGLEWVAVISYDGSKKWYADSVKGRFTISRDNSKNTLYLQMNSLRAEDTAVYYCARNQGSGSYLYYYYMDVWGKGTTVTVSS
VL: QSALTQPRSVSGSPGQSVTISCTGTSSDVGGYNYVSWYQQLPGKAPKVIIYEVSNRPSGVSNRFSGSKSGNTASLTISGVQSEDEADYYCSSYTSSSTFYVFGTGTQLTVLS
notes: Full antibody; VH joined to the IgG2 constant region, VL to the lambda constant region
With B6, the “EC50 … (goat anti-human IgG)” value in test [15] came out at 6.21 nM. Also, the “EC50 … without crosslink” value was determined as 47.4 nM in [9] and 56.1 nM in test [2]. The concentration giving a half-maximal response (EC50) in test [16] is 0.622 nM. Besides, the binding result in test [3], in test [4], in test [5], in [6] and in test [7] was “no binding (tested: 500 ng/mL)” each time.

B7: 41BB-9-IgG2 (antibody, V domains shown)
VH: QVQLVQSGAEVKKPGSSVKVSCKASGGTFSSYAISWVRQAPGQGLEWMGGIIPISGAVNYAQKFQGRVTITADESTSTAYMELSSLRSEDTAVYYCARDQFIKYYDFSSGYFPNGFDIWGKGTLVTVSS
VL: QTVVTQPPSVSVSPGQTASITCSGDKLGDKYAAWYQQKPGQSPVLVIYQDTVRPSGIPERFSGSNSGNTATLTISGTQAMDEADYYCQTWVSSTGVFGTGTKVTVLG
notes: Full antibody, IgG2 / lambda
On to B7, for which, in test [8], the “EC50 … without crosslink” value was found to be 16.6 nM. In addition, the “EC50 … (goat anti-human IgG)” value in test [17] was determined as 3.24 nM. Also, in [18], the EC50 turned out to be 0.134 nM. In addition, the binding result in test [3], in test [4], in [5], in [6] and in test [7] was “no binding (tested: 500 ng/mL)” in each case.
